Laboratory results as given in US20210238276A1 (INTEGRAL MOLECULAR, published 2021).

Key:
Experiment in all cases: flow cytometry, alanine-scan library in HEK-293T
hsGLUT4 G414A = biological target: T1, hsGLUT4 G414A (human, UniProt P14672 1-509)
T1 sequence: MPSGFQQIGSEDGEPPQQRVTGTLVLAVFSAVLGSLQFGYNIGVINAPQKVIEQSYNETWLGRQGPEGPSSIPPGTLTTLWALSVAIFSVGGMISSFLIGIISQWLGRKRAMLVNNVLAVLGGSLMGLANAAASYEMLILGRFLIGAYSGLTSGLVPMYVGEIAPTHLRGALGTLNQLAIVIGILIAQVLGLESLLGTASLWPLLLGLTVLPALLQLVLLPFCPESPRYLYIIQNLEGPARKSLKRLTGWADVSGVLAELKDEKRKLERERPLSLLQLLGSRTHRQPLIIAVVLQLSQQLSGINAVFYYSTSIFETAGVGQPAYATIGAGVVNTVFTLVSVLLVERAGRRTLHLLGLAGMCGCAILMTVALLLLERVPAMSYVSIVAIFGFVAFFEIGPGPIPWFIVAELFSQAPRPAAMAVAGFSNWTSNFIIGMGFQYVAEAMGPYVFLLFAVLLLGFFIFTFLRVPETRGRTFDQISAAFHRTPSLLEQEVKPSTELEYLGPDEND
How it was run: (§1)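 HEK-293T cells expressing individual GLUT4 alanine mutants were stained 48 h post-transfection with anti-GLUT4 scFv MAbs (2 μg/ml), then biotinylated secondary and streptavidin-PerCP, and read by high-throughput flow cytometry. Where used, cytochalasin B (10 uM final) was given for 30 min before and during primary antibody staining.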

hsGLUT4 S310A = biological target: T2, hsGLUT4 S310A (human, UniProt P14672 1-509)
T2 sequence: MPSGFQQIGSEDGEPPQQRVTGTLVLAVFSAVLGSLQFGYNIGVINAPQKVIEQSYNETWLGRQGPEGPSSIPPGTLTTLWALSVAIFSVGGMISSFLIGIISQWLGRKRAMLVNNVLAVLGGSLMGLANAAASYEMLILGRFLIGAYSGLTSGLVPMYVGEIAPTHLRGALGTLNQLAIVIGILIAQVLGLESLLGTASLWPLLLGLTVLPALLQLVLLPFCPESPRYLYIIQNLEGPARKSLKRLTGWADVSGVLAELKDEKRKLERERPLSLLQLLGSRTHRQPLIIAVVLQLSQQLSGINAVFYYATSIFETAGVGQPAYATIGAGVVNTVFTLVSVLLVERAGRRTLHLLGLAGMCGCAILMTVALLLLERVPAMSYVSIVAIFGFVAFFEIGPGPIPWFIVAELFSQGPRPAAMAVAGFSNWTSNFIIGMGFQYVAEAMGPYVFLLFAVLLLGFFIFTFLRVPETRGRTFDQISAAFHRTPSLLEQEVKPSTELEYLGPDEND
How it was run: as §1

hsGLUT4 I163A = biological target: T3, hsGLUT4 I163A (human, UniProt P14672 1-509)
T3 sequence: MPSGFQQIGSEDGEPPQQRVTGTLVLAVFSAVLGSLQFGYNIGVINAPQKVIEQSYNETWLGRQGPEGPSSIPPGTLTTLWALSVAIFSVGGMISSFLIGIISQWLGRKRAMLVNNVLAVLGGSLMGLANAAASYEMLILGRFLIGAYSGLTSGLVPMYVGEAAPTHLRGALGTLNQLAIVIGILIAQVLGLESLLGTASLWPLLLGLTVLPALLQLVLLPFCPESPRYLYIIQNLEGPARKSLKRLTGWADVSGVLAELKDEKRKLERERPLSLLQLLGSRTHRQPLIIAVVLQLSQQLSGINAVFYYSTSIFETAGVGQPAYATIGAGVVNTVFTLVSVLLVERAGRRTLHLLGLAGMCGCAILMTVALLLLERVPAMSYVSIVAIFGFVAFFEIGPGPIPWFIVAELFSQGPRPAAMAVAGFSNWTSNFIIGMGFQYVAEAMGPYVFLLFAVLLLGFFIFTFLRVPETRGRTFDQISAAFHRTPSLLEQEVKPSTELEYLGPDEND
How it was run: as §1

hsGLUT4 D506A = biological target: T4, hsGLUT4 D506A (human, UniProt P14672 1-509)
T4 sequence: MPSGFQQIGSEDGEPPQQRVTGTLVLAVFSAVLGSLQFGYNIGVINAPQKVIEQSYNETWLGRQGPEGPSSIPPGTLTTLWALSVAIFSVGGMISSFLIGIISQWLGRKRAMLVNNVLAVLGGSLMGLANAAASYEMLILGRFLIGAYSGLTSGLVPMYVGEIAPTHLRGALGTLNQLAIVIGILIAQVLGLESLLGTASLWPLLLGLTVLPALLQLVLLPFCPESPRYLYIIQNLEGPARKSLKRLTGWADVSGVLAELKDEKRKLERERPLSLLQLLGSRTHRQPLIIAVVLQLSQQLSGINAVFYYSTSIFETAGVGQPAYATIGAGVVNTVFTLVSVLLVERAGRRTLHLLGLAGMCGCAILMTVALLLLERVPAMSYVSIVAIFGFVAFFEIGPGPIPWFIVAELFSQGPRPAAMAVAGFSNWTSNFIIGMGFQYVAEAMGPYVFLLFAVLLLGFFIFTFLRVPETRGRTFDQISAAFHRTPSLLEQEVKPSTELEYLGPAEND
How it was run: as §1

Molecule: 1F8 (antibody)
- % of binding to wild type GLUT4 (hsGLUT4 G414A): 78%
- % of binding to wild type GLUT4 (hsGLUT4 S310A): 93%
- % of binding to wild type GLUT4 (hsGLUT4 I163A): 91%
- % of binding to wild type GLUT4 (hsGLUT4 D506A): 29%

B1: AB111 (Fc fusion)
scFv: ALTQPSSVSANPGETVKITCSGSGSWYGWFQQKSPGSAPVTVIYSNDKRPSDIPSRFSGSKSGSTSTLTITGVQVEDEAVYYCGNWDIFGAGTTLTVLGQSSRSSGGGGSSGGGGSAVTLDESGGGLQTPGGALSLVCKASGFTFSSHGMGWVRQAPGKGLEWVASISTGRYTFYAPAVKGRATISRDNGQSTVRLQLNNLRAEDTATYYCTKCAGLNGCGGGEIDAWGHGTEVIVSS
notes: Bivalent scFv-Fc; also called MAb AB111; not shown: Fc fragment of human IgG1, cloned in frame with the scFv
- % of binding to wild type GLUT4 (hsGLUT4 G414A): 109%
- % of binding to wild type GLUT4 (hsGLUT4 S310A): 130%
- % of binding to wild type GLUT4 (hsGLUT4 I163A): 87%
- % of binding to wild type GLUT4 (hsGLUT4 D506A): 158%

B2: AB108 (Fc fusion)
scFv: ALTQPSSVSANLGGTVKITCSGSSGSYGWYQQKAPGSAPVTLIYRNDKRPSDIPSRFSGSESGSTGTLTITGVQAEDEAVYFCGGYDSSAGYAAFGAGTTLTVLGQSSRSSGGGGSSGGGGSAVTLDESGGGLQTPGGALSLVCKASGFTFSSHGMGWVRQAPGKGLEWVGSISTGRYTFYAPAVKGRATISRDNGQSTLRLQLNNLRAEDTGTYYCTKCAGLNGCGGGEIDAWGHGTEVIVSS
notes: Bivalent scFv-Fc; also called MAb AB108; not shown: Fc fragment of human IgG1, cloned in frame with the scFv
- % of binding to wild type GLUT4 (hsGLUT4 G414A): 80%
- % of binding to wild type GLUT4 (hsGLUT4 S310A): 97%
- % of binding to wild type GLUT4 (hsGLUT4 I163A): 90%
- % of binding to wild type GLUT4 (hsGLUT4 D506A): 105%

B3: AB101 (scFv)
scFv: ALTQPSSVSANPGETVKITCSGSSNSYGWYQQKSPGSAPVTVIYYNDKRPSDIPSRFSGSKSDSTHTLTITGVRAEDEAVYFCGSYDSTYVGIFGAGTTLTVLGQSSRSSGGGGSSGGGGSAVTLDESGGGLQTPGGTLSLVCKASGFTFSSNAMGWVRQAPGKGLEWVAGISSDGRYTKYGSAVKGRATISRDNGQSTVRLQLNNLRAEDTGTYFCAKAFGNNYRRIYAGQIDAWGHGTEVIVSS
notes: Chicken-derived clone used as a control; the four lead clones were tested as scFv-human IgG1 Fc; also called MAb AB101
- % of binding to wild type GLUT4 (hsGLUT4 G414A): 83%
- % of binding to wild type GLUT4 (hsGLUT4 S310A): 101%
- % of binding to wild type GLUT4 (hsGLUT4 I163A): 115%
- % of binding to wild type GLUT4 (hsGLUT4 D506A): 34%
